Experimental data published in patent US20200199241A1 (Chugai, published 2020).

T1: FcγRIIb (human, UniProt P31994 43-217, limits assumed)
T1 construct: also called FcγIIB; CD32
T1 sequence: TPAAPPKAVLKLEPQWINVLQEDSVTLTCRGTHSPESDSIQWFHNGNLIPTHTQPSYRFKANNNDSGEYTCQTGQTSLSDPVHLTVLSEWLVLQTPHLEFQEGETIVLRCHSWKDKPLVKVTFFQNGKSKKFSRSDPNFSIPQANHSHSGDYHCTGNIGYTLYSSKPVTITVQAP

T2: FcγRIIa type R (human, UniProt P12318 36-217)
T2 construct: also called FcγRIIaR; FcγRIIa(R)
T2 chain: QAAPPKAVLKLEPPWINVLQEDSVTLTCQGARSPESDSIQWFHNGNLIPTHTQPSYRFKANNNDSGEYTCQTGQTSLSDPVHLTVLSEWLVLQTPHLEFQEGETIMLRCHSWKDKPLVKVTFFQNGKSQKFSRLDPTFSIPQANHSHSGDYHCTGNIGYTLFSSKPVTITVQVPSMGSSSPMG

T3: FcγRIIa type H (human, UniProt P12318 36-217)
T3 construct: also called FcγRIIaH; FcγRIIa(H)
T3 sequence: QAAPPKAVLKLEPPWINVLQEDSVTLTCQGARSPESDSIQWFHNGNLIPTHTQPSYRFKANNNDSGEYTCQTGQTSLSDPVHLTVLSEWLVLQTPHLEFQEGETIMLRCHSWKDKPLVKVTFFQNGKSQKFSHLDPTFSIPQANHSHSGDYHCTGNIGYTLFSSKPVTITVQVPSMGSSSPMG


What was measured:
[1] = target: T1, FcγRIIb; assay: SPR (Biacore); KD for FcγRIIaR divided by KD for FcγRIIb of the same antibody; column head in Table 52-1
From the text: (§1) Furthermore, KD(IIaR)/KD(IIb) and KD(IIaH)/KD(IIb) in the table respectively represent the value obtained by dividing the KD value of each variant for FcγRIIaR by the KD value of each variant for FcγRIIb, and the value obtained by dividing the KD value of each variant for FcγRIIaH by the KD value of each variant for FcγRIIb. KD(IIb) of the parent polypeptide/KD(IIb) of the altered polypeptide refers to the value obtained by dividing the KD value of the parent polypeptide for FcγRIIb by the KD value of each variant for FcγRIIb.

[2] = target: T4, FcγRIa (human, UniProt P12314 16-292, limits assumed); assay: SPR (Biacore), method of Example 14
T4 construct: also called CD64
T4 sequence (P12314 16-292 limits assumed): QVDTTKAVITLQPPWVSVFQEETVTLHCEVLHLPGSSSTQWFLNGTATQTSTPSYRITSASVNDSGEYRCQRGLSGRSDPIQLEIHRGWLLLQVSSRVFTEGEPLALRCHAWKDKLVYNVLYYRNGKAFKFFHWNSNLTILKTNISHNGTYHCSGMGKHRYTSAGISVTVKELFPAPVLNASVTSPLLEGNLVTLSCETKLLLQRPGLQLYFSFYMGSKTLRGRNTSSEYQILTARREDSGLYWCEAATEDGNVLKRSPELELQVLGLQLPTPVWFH

[3] = target: T5, FcγRIIIa type V (human, UniProt P08637 17-208, limits assumed); assay: SPR (Biacore), method of Example 14
T5 construct: also called FcγRIIIaV; FcγRIIIa(V)
T5 sequence (P08637 17-208 F176V limits assumed): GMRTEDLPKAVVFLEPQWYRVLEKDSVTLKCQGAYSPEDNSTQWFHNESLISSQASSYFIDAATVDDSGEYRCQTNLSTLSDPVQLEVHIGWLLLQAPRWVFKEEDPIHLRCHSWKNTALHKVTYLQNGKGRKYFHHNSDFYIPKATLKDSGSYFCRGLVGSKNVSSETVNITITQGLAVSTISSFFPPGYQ

[4] = target: T1, FcγRIIb; assay: SPR (Biacore), method of Example 14
[5] = target: T2, FcγRIIa type R; assay: SPR (Biacore), method of Example 14
[6] = target: T3, FcγRIIa type H; assay: SPR (Biacore), method of Example 14
[7] = target: T1, FcγRIIb; assay: ratio of SPR KD values, parent IL6R-B3/IL6R-L
From the text: as §1

[8] = target: T1, FcγRIIb; assay: SPR (Biacore); KD for FcγRIIaH divided by KD for FcγRIIb of the same antibody; column head in Table 52-1
From the text: as §1

Row | Binder | KD(IIaR)/KD(IIb) [1] | Kd [2] | Kd [3] | Kd [4] | Kd [5] | Kd [6] | KD(IIb) of the parent polypeptide/KD(IIb) of altered polypeptide [7] | KD(IIaH)/KD(IIb) [8]
1 | IL6R-BP195/IL6R-L (antibody, human IgG1, Anti-IL-6R human IgG1 variant; copies: 2 + 2) heavy: QVQLQESGPGLVKPSETLSLTCAVSGHSISHDHAWSWVRQPPGEGLEWIGFISYSGITNYNPSLQGRVTISRDNSKNTLYLQMNSLRAEDTAVYYCARSLARTTAMDYWGEGTLVTVSSASTKGPSVFPLAPSSKSTSGGTAALGCLVKDYFPEPVTVSWNSGALTSGVHTFPAVLQSSGLYSLSSVVTVPSSSLGTQTYICNVNHKPSNTKVDKKVEPKSCDKTHTCPPCPAPDYLGDDSVFLFPPKPKDTLMISRTPEVTCVVVDVSDEDGEVKFNWYVDGVEVHNAKTKPREEQDNSTYRVVSVLTVLHQDWLNGKEYKCKVSNAALPKPIEKTISKAKGQPREPQVYTLPPSRDELTKNQVSLTCLVKGFYPSDIAVEWESNGQPENNYKTTPPVLDSDGSFFLYSKLTVDKSRWQQGNVFSCSVMHEALHNHYTQESLSLSP light: DIQMTQSPSSLSASVGDRVTITCRASQDISSYLNWYQQKPGKAPKLLIYYTSRLHSGVPSRFSGSGSGTDFTFTISSLQPEDIATYYCQQGNTLPYTFGQGTKVEIK | 18.2 | 23 nM | 31000 nM | 50 nM | 910 nM | 10000 nM | 62 fold | 201
2 | IL6R-BP203/IL6R-L (antibody, human IgG1, Anti-IL-6R human IgG1 variant; copies: 2 + 2) heavy: QVQLQESGPGLVKPSETLSLTCAVSGHSISHDHAWSWVRQPPGEGLEWIGFISYSGITNYNPSLQGRVTISRDNSKNTLYLQMNSLRAEDTAVYYCARSLARTTAMDYWGEGTLVTVSSASTKGPSVFPLAPSSKSTSGGTAALGCLVKDYFPEPVTVSWNSGALTSGVHTFPAVLQSSGLYSLSSVVTVPSSSLGTQTYICNVNHKPSNTKVDKKVEPKSCDKTHTCPPCPAPELLGDDSVFLFPPKPKDTLMISRTPEVTCVVVDVSHEDGEVKFNWYVDGVEVHNAKTKPREEQYNSTYRVVSVLTVLHQDWLNGKEYKCKVSNKALPRPIEKTISKAKGQPREPQVYTLPPSRDELTKNQVSLTCLVKGFYPSDIAVEWESNGQPENNYKTTPPVLDSDGSFFLYSKLTVDKSRWQQGNVFSCSVMHEALHNHYTQESLSLSP light: DIQMTQSPSSLSASVGDRVTITCRASQDISSYLNWYQQKPGKAPKLLIYYTSRLHSGVPSRFSGSGSGTDFTFTISSLQPEDIATYYCQQGNTLPYTFGQGTKVEIK | 20.5 | 180 nM | 72000 nM | 49 nM | 990 nM | 11000 nM | 63.7 fold | 227
3 | IL6R-BP209/IL6R-L (antibody, human IgG1, Anti-IL-6R human IgG1 variant; copies: 2 + 2) heavy: QVQLQESGPGLVKPSETLSLTCAVSGHSISHDHAWSWVRQPPGEGLEWIGFISYSGITNYNPSLQGRVTISRDNSKNTLYLQMNSLRAEDTAVYYCARSLARTTAMDYWGEGTLVTVSSASTKGPSVFPLAPSSKSTSGGTAALGCLVKDYFPEPVTVSWNSGALTSGVHTFPAVLQSSGLYSLSSVVTVPSSSLGTQTYICNVNHKPSNTKVDKKVEPKSCDKTHTCPPCPAPELLGDDSVFLFPPKPKDTLMISRTPEVTCVVVDVSDEDGEVKFNWYVDGVEVHNAKTKPREEQYNSTYRVVSVLTVLHQDWLNGKEYKCKVSNAALPRPIEKTISKAKGQPREPQVYTLPPSRDELTKNQVSLTCLVKGFYPSDIAVEWESNGQPENNYKTTPPVLDSDGSFFLYSKLTVDKSRWQQGNVFSCSVMHEALHNHYTQESLSLSP light: DIQMTQSPSSLSASVGDRVTITCRASQDISSYLNWYQQKPGKAPKLLIYYTSRLHSGVPSRFSGSGSGTDFTFTISSLQPEDIATYYCQQGNTLPYTFGQGTKVEIK | 22.7 | 39 nM | 41000 nM | 51 nM | 1200 nM | 10000 nM | 60.4 fold | 195
4 | IL6R-BP206/IL6R-L (antibody, human IgG1, Anti-IL-6R human IgG1 variant; copies: 2 + 2) heavy: QVQLQESGPGLVKPSETLSLTCAVSGHSISHDHAWSWVRQPPGEGLEWIGFISYSGITNYNPSLQGRVTISRDNSKNTLYLQMNSLRAEDTAVYYCARSLARTTAMDYWGEGTLVTVSSASTKGPSVFPLAPSSKSTSGGTAALGCLVKDYFPEPVTVSWNSGALTSGVHTFPAVLQSSGLYSLSSVVTVPSSSLGTQTYICNVNHKPSNTKVDKKVEPKSCDKTHTCPPCPAPDLLGGDSVFLFPPKPKDTLMISRTPEVTCVVVDVSHEDGEVKFNWYVDGVEVHNAKTKPREEQYNSTYRVVSVLTVLHQDWLNGKEYKCKVSNKALPRPIEKTISKAKGQPREPQVYTLPPSRDELTKNQVSLTCLVKGFYPSDIAVEWESNGQPENNYKTTPPVLDSDGSFFLYSKLTVDKSRWQQGNVFSCSVMHEALHNHYTQESLSLSP light: DIQMTQSPSSLSASVGDRVTITCRASQDISSYLNWYQQKPGKAPKLLIYYTSRLHSGVPSRFSGSGSGTDFTFTISSLQPEDIATYYCQQGNTLPYTFGQGTKVEIK | 16.1 | 8.2 nM | 69000 nM | 200 nM | 3100 nM | 24000 nM | 15.8 fold | 123
5 | IL6R-BP196/IL6R-L (antibody, human IgG1, Anti-IL-6R human IgG1 variant; copies: 2 + 2) heavy: QVQLQESGPGLVKPSETLSLTCAVSGHSISHDHAWSWVRQPPGEGLEWIGFISYSGITNYNPSLQGRVTISRDNSKNTLYLQMNSLRAEDTAVYYCARSLARTTAMDYWGEGTLVTVSSASTKGPSVFPLAPSSKSTSGGTAALGCLVKDYFPEPVTVSWNSGALTSGVHTFPAVLQSSGLYSLSSVVTVPSSSLGTQTYICNVNHKPSNTKVDKKVEPKSCDKTHTCPPCPAPEYLGGDSVFLFPPKPKDTLMISRTPEVTCVVVDVSDEDGEVKFNWYVDGVEVHNAKTKPREEQYNSTYRVVSVLTVLHQDWLNGKEYKCKVSNAALPKPIEKTISKAKGQPREPQVYTLPPSRDELTKNQVSLTCLVKGFYPSDIAVEWESNGQPENNYKTTPPVLDSDGSFFLYSKLTVDKSRWQQGNVFSCSVMHEALHNHYTQESLSLSP light: DIQMTQSPSSLSASVGDRVTITCRASQDISSYLNWYQQKPGKAPKLLIYYTSRLHSGVPSRFSGSGSGTDFTFTISSLQPEDIATYYCQQGNTLPYTFGQGTKVEIK | 13.4 | 14 nM | 51000 nM | 220 nM | 3000 nM | 19000 nM | 13.9 fold | 85.2
6 | IL6R-BP208/IL6R-L (antibody, human IgG1, Anti-IL-6R human IgG1 variant; copies: 2 + 2) heavy: QVQLQESGPGLVKPSETLSLTCAVSGHSISHDHAWSWVRQPPGEGLEWIGFISYSGITNYNPSLQGRVTISRDNSKNTLYLQMNSLRAEDTAVYYCARSLARTTAMDYWGEGTLVTVSSASTKGPSVFPLAPSSKSTSGGTAALGCLVKDYFPEPVTVSWNSGALTSGVHTFPAVLQSSGLYSLSSVVTVPSSSLGTQTYICNVNHKPSNTKVDKKVEPKSCDKTHTCPPCPAPDLLGDDSVFLFPPKPKDTLMISRTPEVTCVVVDVSDEDGEVKFNWYVDGVEVHNAKTKPREEQYNSTYRVVSVLTVLHQDWLNGKEYKCKVSNKALPRPIEKTISKAKGQPREPQVYTLPPSRDELTKNQVSLTCLVKGFYPSDIAVEWESNGQPENNYKTTPPVLDSDGSFFLYSKLTVDKSRWQQGNVFSCSVMHEALHNHYTQESLSLSP light: DIQMTQSPSSLSASVGDRVTITCRASQDISSYLNWYQQKPGKAPKLLIYYTSRLHSGVPSRFSGSGSGTDFTFTISSLQPEDIATYYCQQGNTLPYTFGQGTKVEIK | 26.3 | 19 nM | 53000 nM | 32 nM | 850 nM | 83000 nM | 95.4 fold | 256
7 | IL6R-BP197/IL6R-L (antibody, human IgG1, Anti-IL-6R human IgG1 variant; copies: 2 + 2) heavy: QVQLQESGPGLVKPSETLSLTCAVSGHSISHDHAWSWVRQPPGEGLEWIGFISYSGITNYNPSLQGRVTISRDNSKNTLYLQMNSLRAEDTAVYYCARSLARTTAMDYWGEGTLVTVSSASTKGPSVFPLAPSSKSTSGGTAALGCLVKDYFPEPVTVSWNSGALTSGVHTFPAVLQSSGLYSLSSVVTVPSSSLGTQTYICNVNHKPSNTKVDKKVEPKSCDKTHTCPPCPAPDYLGDDSVFLFPPKPKDTLMISRTPEVTCVVVDVSDEDGEVKFNWYVDGVEVHNAKTKPREEQDNSTYRVVSVLTVLHQDWLNGKEYKCKVSNDALPKPIEKTISKAKGQPREPQVYTLPPSRDELTKNQVSLTCLVKGFYPSDIAVEWESNGQPENNYKTTPPVLDSDGSFFLYSKLTVDKSRWQQGNVFSCSVMHEALHNHYTQESLSLSP light: DIQMTQSPSSLSASVGDRVTITCRASQDISSYLNWYQQKPGKAPKLLIYYTSRLHSGVPSRFSGSGSGTDFTFTISSLQPEDIATYYCQQGNTLPYTFGQGTKVEIK | 17.1 | 19 nM | 33000 nM | 58 nM | 980 nM | 12000 nM | 53.7 fold | 209
